Laboratory results as given in PMC4390835.
Where two headings read alike, the source gives them in different places.

What was measured:
[1] = target: Lsp1, C-terminally tagged with mVenus or mCerulean (S. cerevisiae) (UniProt Q12230); assay: FRET or BRET
[2] = target: Lsp1, C-terminally tagged with mVenus or mCerulean (S. cerevisiae) (UniProt Q12230); assay: FRET or BRET; remark: listed apart in the source
[3] = target: Lsp1, C-terminally tagged with mVenus or mCerulean (S. cerevisiae) (UniProt Q12230); assay: FRET or BRET; remark: listed apart in the source
[4] = target: Pil1, C-terminally tagged with mVenus or mCerulean (S. cerevisiae) (UniProt P53252); assay: FRET or BRET
[5] = target: Pil1, C-terminally tagged with mVenus or mCerulean (S. cerevisiae) (UniProt P53252); assay: FRET or BRET; remark: listed apart in the source
[6] = target: Pil1, C-terminally tagged with mVenus or mCerulean (S. cerevisiae) (UniProt P53252); assay: FRET or BRET; remark: listed apart in the source
[7] = target: Pil1, C-terminally tagged with mVenus or mCerulean (S. cerevisiae) (UniProt P53252); assay: FRET or BRET; remark: listed apart in the source
[8] = target: Pil1, C-terminally tagged with mVenus or mCerulean (S. cerevisiae) (UniProt P53252); assay: number and brightness
[9] = target: Pil1, C-terminally tagged with mVenus or mCerulean (S. cerevisiae) (UniProt P53252); assay: FRET or BRET; remark: listed apart in the source
[10] = target: Pil1, C-terminally tagged with mVenus or mCerulean (S. cerevisiae) (UniProt P53252); assay: FRET or BRET; remark: listed apart in the source
[11] = target: Pil1, C-terminally tagged with mVenus or mCerulean (S. cerevisiae) (UniProt P53252); assay: FRET or BRET; remark: listed apart in the source

Substance | FRET efficiency [1] [%] | FRET efficiency [2] [%] | FRET efficiency [3] [%] | FRET efficiency [4] [%] | FRET efficiency [5] [%] | FRET efficiency [6] [%] | FRET efficiency [7] [%] | percent of Pil1-mVenus that corresponds to oligomers [8] [%] | FRET efficiency [9] [%] | FRET efficiency [10] [%] | FRET efficiency [11] [%]
Lsp1, C-terminally tagged with mVenus or mCerulean (from UniProt Q12230 1-341) (natural protein) | 30 | 20 | 20 |  |  |  |  |  |  |  | 
Pil1, C-terminally tagged with mVenus or mCerulean (from UniProt P53252 1-339) (natural protein) |  |  |  | 28 | 20 | 10 | 15 | 8 | 5 | 10 | 18
